PMC9352680, “A comprehensive thermodynamic model for RNA binding by the Saccharomyces cerevisiae Pumilio protein PUF4”

T1: PUF4 RNA-binding domain (Saccharomyces cerevisiae, UniProt P25339 537-888)
T1 sequence: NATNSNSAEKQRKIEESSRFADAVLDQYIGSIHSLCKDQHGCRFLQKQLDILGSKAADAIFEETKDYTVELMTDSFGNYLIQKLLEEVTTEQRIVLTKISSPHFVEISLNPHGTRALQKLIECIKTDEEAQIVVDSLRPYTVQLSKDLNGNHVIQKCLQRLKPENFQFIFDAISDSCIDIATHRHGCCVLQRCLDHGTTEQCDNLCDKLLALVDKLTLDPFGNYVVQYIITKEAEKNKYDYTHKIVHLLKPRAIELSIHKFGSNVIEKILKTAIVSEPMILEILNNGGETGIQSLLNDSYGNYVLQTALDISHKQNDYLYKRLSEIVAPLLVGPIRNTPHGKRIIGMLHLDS


Each binder was assayed against T1, PUF4 RNA-binding domain (assay: Mg; RNA-MaP; 20 mM Na-HEPES pH 7.4, 30 mM KOAc, 0.75 mM MgCl2, 0.1% Tween-20, 5% glycerol, 0.1 mg/mL BSA, 2 mM DTT; 25 C; 0.0125-409.6 nM protein). Details: tags: N-His6-TEV cleaved; C-SNAP kept, Cy3B-labelled; label: tethered on chip by stalled RNA polymerase.

Row | Binder | Kd
1 | UCUCUUUGUAGCAACUCUCUU (ssRNA) [Ic_S1_P4E.1_K4.1_C4.1_H4.1_A4.1_[T5G]_[A6C]_[T7A]_F4.1_[T8A]_[A9C]_T4.1] | 1210 nM
2 | UCUCUUUGUAGCCGAUCUCUU (ssRNA) [Ic_S1_P4E.1_K4.1_C4.1_H4.1_A4.1_[T5G]_[A6C]_[T7C]_F4.1_[T8G]_T4.1] | > 2300 nM
3 | UCUCUUUGUAGCAAAUCUCUU (ssRNA) [Ic_S1_P4E.1_K4.1_C4.1_H4.1_A4.1_[T5G]_[A6C]_[T7A]_F4.1_[T8A]_T4.1] | 833 nM
4 | UCUCUUUGUAUUGGUCUCUU (ssRNA) [Ic_S1_P3E.1_K3.1_C3.1_H3.1_A3.1_[A6T]_F3.1_[T7G]_[A8G]_T3.1] | 1360 nM
5 | UCUCUUUGUAUCGCUCUCUU (ssRNA) [Ic_S1_P3E.1_K3.1_C3.1_H3.1_A3.1_[A6C]_F3.1_[T7G]_[A8C]_T3.1] | 859 nM
6 | UCUCUUUGUAAAACUCUCUU (ssRNA) [Ic_S1_P3E.1_K3.1_C3.1_H3.1_A3.1_[T5A]_F3.1_[T7A]_[A8C]_T3.1] | 369 nM
7 | UCUCUUUGUAGCGUCUCUCUU (ssRNA) [Ic_S1_P4E.1_K4.1_C4.1_H4.1_A4.1_[T5G]_[A6C]_[T7G]_F4.1_[A9C]_T4.1] | 1710 nM
8 | UCUCUUUGUAAACUUCUCUU (ssRNA) [Ic_S1_P3E.1_K3.1_C3.1_H3.1_A3.1_[T5A]_F3.1_[T7C]_[A8T]_T3.1] | 24 nM
9 | UCUCUUUGUAAACCUCUCUU (ssRNA) [Ic_S1_P3E.1_K3.1_C3.1_H3.1_A3.1_[T5A]_F3.1_[T7C]_[A8C]_T3.1] | 568 nM
10 | UCUCUUUGUAUGACUCUCUU (ssRNA) [Ic_S1_P3E.1_K3.1_C3.1_H3.1_A3.1_[A6G]_F3.1_[T7A]_[A8C]_T3.1] | 1070 nM
11 | UCUCUUUGUAAAGUUCUCUU (ssRNA) [Ic_S1_P3E.1_K3.1_C3.1_H3.1_A3.1_[T5A]_F3.1_[T7G]_[A8T]_T3.1] | 135 nM
12 | UCUCUUUGUAUUAGUCUCUU (ssRNA) [Ic_S1_P3E.1_K3.1_C3.1_H3.1_A3.1_[A6T]_F3.1_[T7A]_[A8G]_T3.1] | 349 nM
13 | UCUCUUUGUAUCACUCUCUU (ssRNA) [Ic_S1_P3E.1_K3.1_C3.1_H3.1_A3.1_[A6C]_F3.1_[T7A]_[A8C]_T3.1] | 127 nM
14 | UCUCUUUGUAUUCUUCUCUU (ssRNA) [Ic_S1_P3E.1_K3.1_C3.1_H3.1_A3.1_[A6T]_F3.1_[T7C]_[A8T]_T3.1] | 32.5 nM
15 | UCUCUUUGUAUGCCUCUCUU (ssRNA) [Ic_S1_P3E.1_K3.1_C3.1_H3.1_A3.1_[A6G]_F3.1_[T7C]_[A8C]_T3.1] | 1720 nM
16 | UCUCUUUGUAAUACUCUCUU (ssRNA) [Ic_S1_P3E.1_K3.1_C3.1_H3.1_A3.1_[T5A]_[A6T]_F3.1_[T7A]_[A8C]_T3.1] | 560 nM
17 | UCUCUUUGUAUACGUCUCUU (ssRNA) [Ic_S1_P3E.1_K3.1_C3.1_H3.1_A3.1_F3.1_[T7C]_[A8G]_T3.1] | 82 nM
18 | UCUCUUUGUAGCGUGUCUCUU (ssRNA) [Ic_S1_P4E.1_K4.1_C4.1_H4.1_A4.1_[T5G]_[A6C]_[T7G]_F4.1_[A9G]_T4.1] | 2000 nM
19 | UCUCUUUGUAGCAGUUCUCUU (ssRNA) [Ic_S1_P4E.1_K4.1_C4.1_H4.1_A4.1_[T5G]_[A6C]_[T7A]_F4.1_[T8G]_[A9T]_T4.1] | 1440 nM
20 | UCUCUUUGUAUUCGUCUCUU (ssRNA) [Ic_S1_P3E.1_K3.1_C3.1_H3.1_A3.1_[A6T]_F3.1_[T7C]_[A8G]_T3.1] | 523 nM

Row | Binder | Kd
21 | UCUCUUUGUAGCGUUUCUCUU (ssRNA) [Ic_S1_P4E.1_K4.1_C4.1_H4.1_A4.1_[T5G]_[A6C]_[T7G]_F4.1_[A9T]_T4.1] | 964 nM
22 | UCUCUUUGUAUCAGUCUCUU (ssRNA) [Ic_S1_P3E.1_K3.1_C3.1_H3.1_A3.1_[A6C]_F3.1_[T7A]_[A8G]_T3.1] | 483 nM
23 | UCUCUUUGUAGCCCUUCUCUU (ssRNA) [Ic_S1_P4E.1_K4.1_C4.1_H4.1_A4.1_[T5G]_[A6C]_[T7C]_F4.1_[T8C]_[A9T]_T4.1] | > 2300 nM
24 | UCUCUUUGUAGCACGUCUCUU (ssRNA) [Ic_S1_P4E.1_K4.1_C4.1_H4.1_A4.1_[T5G]_[A6C]_[T7A]_F4.1_[T8C]_[A9G]_T4.1] | > 2300 nM
25 | UCUCUUUGUAUCGUUCUCUU (ssRNA) [Ic_S1_P3E.1_K3.1_C3.1_H3.1_A3.1_[A6C]_F3.1_[T7G]_[A8T]_T3.1] | 326 nM
26 | UCUCUUUGUAGCACUUCUCUU (ssRNA) [Ic_S1_P4E.1_K4.1_C4.1_H4.1_A4.1_[T5G]_[A6C]_[T7A]_F4.1_[T8C]_[A9T]_T4.1] | 949 nM
27 | UCUCUUUGUAGCCUUUCUCUU (ssRNA) [Ic_S1_P4E.1_K4.1_C4.1_H4.1_A4.1_[T5G]_[A6C]_[T7C]_F4.1_[A9T]_T4.1] | 679 nM
28 | UCUCUUUGUAUAGCUCUCUU (ssRNA) [Ic_S1_P3E.1_K3.1_C3.1_H3.1_A3.1_F3.1_[T7G]_[A8C]_T3.1] | 82.1 nM
29 | UCUCUUUGUAUAUAUCUCUU (ssRNA) [If_S1_P3E.1_K3.1_C3.1_H3.1_A3.1_F3.1_T3.1] | 4.91 nM
30 | UCUCUUUGUAGCCACUCUCUU (ssRNA) [Ic_S1_P4E.1_K4.1_C4.1_H4.1_A4.1_[T5G]_[A6C]_[T7C]_F4.1_[T8A]_[A9C]_T4.1] | > 2300 nM
31 | Ia_S4_P5E.1_K5.1_C5.1_H5.1_A5.1_[T6A]_F5.1_T5.1 (ssRNA) RNA: UUUGACAACUGAUCGUUCUUUCUUGUAUAAUUAUUCUUUCUCGAUCAGUUGUCUUU | 4.42 nM
32 | Ia_S4_P5E.1_K5.1_C5.1_H5.1_A5.1_[A7C]_F5.1_T5.1 (ssRNA) RNA: UUUGACAACUGAUCGUUCUUUCUUGUAUUCUUAUUCUUUCUCGAUCAGUUGUCUUU | 5.51 nM
33 | UCUCUUUGUAGCCGGUCUCUU (ssRNA) [Ic_S1_P4E.1_K4.1_C4.1_H4.1_A4.1_[T5G]_[A6C]_[T7C]_F4.1_[T8G]_[A9G]_T4.1] | > 2300 nM
34 | UCUCUUUGUAAUAAUCUCUU (ssRNA) [Ic_S1_P3E.1_K3.1_C3.1_H3.1_A3.1_[T5A]_[A6T]_F3.1_[T7A]_T3.1] | 146 nM
35 | UCUCUUUGUAUCCCUCUCUU (ssRNA) [Ic_S1_P3E.1_K3.1_C3.1_H3.1_A3.1_[A6C]_F3.1_[T7C]_[A8C]_T3.1] | 531 nM
36 | UCUCUUUGUAGCAAUUCUCUU (ssRNA) [Ic_S1_P4E.1_K4.1_C4.1_H4.1_A4.1_[T5G]_[A6C]_[T7A]_F4.1_[T8A]_[A9T]_T4.1] | 857 nM
37 | UCUCUUUGUAAUUCUCUCUU (ssRNA) [Ic_S1_P3E.1_K3.1_C3.1_H3.1_A3.1_[T5A]_[A6T]_F3.1_[A8C]_T3.1] | 477 nM
38 | UCUCUUUGUAUAGUUCUCUU (ssRNA) [Ic_S1_P3E.1_K3.1_C3.1_H3.1_A3.1_F3.1_[T7G]_[A8T]_T3.1] | 11 nM
39 | UCUCUUUGUAUCGGUCUCUU (ssRNA) [Ic_S1_P3E.1_K3.1_C3.1_H3.1_A3.1_[A6C]_F3.1_[T7G]_[A8G]_T3.1] | 1940 nM
40 | UCUCUUUGUAGCCGUUCUCUU (ssRNA) [Ic_S1_P4E.1_K4.1_C4.1_H4.1_A4.1_[T5G]_[A6C]_[T7C]_F4.1_[T8G]_[A9T]_T4.1] | > 2300 nM

Row | Binder | Kd
41 | UCUCUUUGUAUACCUCUCUU (ssRNA) [Ic_S1_P3E.1_K3.1_C3.1_H3.1_A3.1_F3.1_[T7C]_[A8C]_T3.1] | 48.9 nM
42 | UCUCUUUGUAAAGCUCUCUU (ssRNA) [Ic_S1_P3E.1_K3.1_C3.1_H3.1_A3.1_[T5A]_F3.1_[T7G]_[A8C]_T3.1] | 1000 nM
43 | UCUCUUUGUAUGGUUCUCUU (ssRNA) [Ic_S1_P3E.1_K3.1_C3.1_H3.1_A3.1_[A6G]_F3.1_[T7G]_[A8T]_T3.1] | 509 nM
44 | UCUCUUUGUAUGGCUCUCUU (ssRNA) [Ic_S1_P3E.1_K3.1_C3.1_H3.1_A3.1_[A6G]_F3.1_[T7G]_[A8C]_T3.1] | 1730 nM
45 | UCUCUUUGUAUGCUUCUCUU (ssRNA) [Ic_S1_P3E.1_K3.1_C3.1_H3.1_A3.1_[A6G]_F3.1_[T7C]_[A8T]_T3.1] | 434 nM
46 | UCUCUUUGUAUCCUUCUCUU (ssRNA) [Ic_S1_P3E.1_K3.1_C3.1_H3.1_A3.1_[A6C]_F3.1_[T7C]_[A8T]_T3.1] | 39.8 nM
47 | UCUCUUUGUAGCCCGUCUCUU (ssRNA) [Ic_S1_P4E.1_K4.1_C4.1_H4.1_A4.1_[T5G]_[A6C]_[T7C]_F4.1_[T8C]_[A9G]_T4.1] | > 2300 nM
48 | UCUCUUUGUAGCCAUUCUCUU (ssRNA) [Ic_S1_P4E.1_K4.1_C4.1_H4.1_A4.1_[T5G]_[A6C]_[T7C]_F4.1_[T8A]_[A9T]_T4.1] | 1890 nM
49 | UCUCUUUGUAUUAUUCUCUU (ssRNA) [Ic_S1_P3E.1_K3.1_C3.1_H3.1_A3.1_[A6T]_F3.1_[T7A]_[A8T]_T3.1] | 14.5 nM
50 | UCUCUUUGUAUGAUUCUCUU (ssRNA) [Ic_S1_P3E.1_K3.1_C3.1_H3.1_A3.1_[A6G]_F3.1_[T7A]_[A8T]_T3.1] | 42.2 nM
51 | UCUCUUUGUAAUUUUCUCUU (ssRNA) [Ic_S1_P3E.1_K3.1_C3.1_H3.1_A3.1_[T5A]_[A6T]_F3.1_[A8T]_T3.1] | 34 nM
52 | UCUCUUUGUAGCACAUCUCUU (ssRNA) [Ic_S1_P4E.1_K4.1_C4.1_H4.1_A4.1_[T5G]_[A6C]_[T7A]_F4.1_[T8C]_T4.1] | 1440 nM
53 | UCUCUUUGUAGCAGCUCUCUU (ssRNA) [Ic_S1_P4E.1_K4.1_C4.1_H4.1_A4.1_[T5G]_[A6C]_[T7A]_F4.1_[T8G]_[A9C]_T4.1] | > 2300 nM
54 | UCUCUUUGUAGCCUAUCUCUU (ssRNA) [Ic_S1_P4E.1_K4.1_C4.1_H4.1_A4.1_[T5G]_[A6C]_[T7C]_F4.1_T4.1] | 34.3 nM
55 | UCUCUUUGUAUUCCUCUCUU (ssRNA) [Ic_S1_P3E.1_K3.1_C3.1_H3.1_A3.1_[A6T]_F3.1_[T7C]_[A8C]_T3.1] | 113 nM
56 | UCUCUUUGUAAUUGUCUCUU (ssRNA) [Ic_S1_P3E.1_K3.1_C3.1_H3.1_A3.1_[T5A]_[A6T]_F3.1_[A8G]_T3.1] | 352 nM
57 | UCUCUUUGUAUUGUUCUCUU (ssRNA) [Ic_S1_P3E.1_K3.1_C3.1_H3.1_A3.1_[A6T]_F3.1_[T7G]_[A8T]_T3.1] | 38.1 nM
58 | UCUCUUUGUAUUACUCUCUU (ssRNA) [Ic_S1_P3E.1_K3.1_C3.1_H3.1_A3.1_[A6T]_F3.1_[T7A]_[A8C]_T3.1] | 167 nM
59 | UCUCUUUGUAAAAGUCUCUU (ssRNA) [Ic_S1_P3E.1_K3.1_C3.1_H3.1_A3.1_[T5A]_F3.1_[T7A]_[A8G]_T3.1] | 822 nM
